# Experimental data: the nanobody polyreactivity screen of Harvey et al. (2022)
# Experiment: yeast display, Sf9 membrane polyspecificity reagent, FACS + sequencing; frameworks hold sequencing errors
# How it was run: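 After 36–48 hours of galactose induction, yeast (Saccharomyces cerevisiae BJ5465) displaying a synthetic nanobody library were stained at 4 °C for 1 hour with 10% biotinylated, detergent-solubilized Sf9 membrane reagent. Streptavidin microbeads enriched the stained cells before FACS sorting into low and high (top ~1%) gates on anti-HA and streptavidin fluorescence. Each clone's polyreactivity label reflects its gate of origin.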
row,Sequence,polyreactivity (PSR sort gate)
1,QVQLVESGGGLVQAGGSLRLSCAASGSNFNRYAMGWYRQAPGKERELVAAISRSGGRTYYADSVKGRFTISRDNAKNTVYLQMNSLKPEDTAVYYCAAGGRWFYIDDDWGQGTQVTVSS,high polyreactivity
2,QVQLVESGGGLVQAGGSLRLSCAASGSNFNYYVMGGYRQAPGKERELVAAISRSGTSTYYADSVKGRFTISRDNAKNTVYLQMNRLKPEDSSVYYCAARVSHKYRTYYYWGQGTQVTVSS,high polyreactivity
3,QVQLVESGGGLVQAGGSLRLSCAASGSNFPVYAMGWYRQAPGKEREFVAAISYSGGGTYYADSVKGRFTISRDNAKNTVYLQMNSLKPEDTAVYYCAADVSGWEYAYWGQGTQVTVSS,low polyreactivity
4,QVQLVESGGGLVQAGGSLRLSCAASGSNFQYYGMGWYRQAPGKERELVASISRSGGSTYYADSVKGRFTISRDNAKNTVYLQMNSLKPEDTAVYYCNAKEAIRRTHLTTTYRDGYWGQGTQVTVSS,low polyreactivity
5,QVQLVESGGGLVQAGGSLRLSCAASGSNFSFYAMGWYRQAPGKERELVAAISYSGGSTYYADSVKGRFTISRDNAKNTVYLQINSLKPEDTAVYYCNSDIYRHHGWVPGGYRGQGTQVTVSS,low polyreactivity
6,QVQLVESGGGLVQAGGSLRLSCAASGSNFTANAMGLYRQAPGKEREMVADISTGGSTKYADSVKGRFTISRDNAKNTVYLEMNSLKPEDTAVYYCAARSRWARGSAIRGFWGQGTQVTVSS,high polyreactivity
7,QVQLVESGGGLVQAGGSLRLSCAASGSNFVVYAMGWYRQAPGKERELVAAISWGIGSTYYADSVKGRFTISRDNAKNTVYLHMNSLKPQDTAVYYCAADTDIVLYDYWGQGTQVTVSS,low polyreactivity
8,QVQLVESGGGLVQAGGSLRLSCAASGSNFYGYTMGWYRQAPGKERELVAAISWSGGSTYYADSVKGRFTISRDNAKNTVYLQMNSLKPEDTAVYYCAARWGYSRRGYRGYDYWGQGTQVTVSS,high polyreactivity
9,QVQLVESGGGLVQAGGSLRLSCAASGSNFYPYAMGWYRQAPGKEREFVAAITRSGGSTSYADSVKGRFTISRDNAKNTVYLQMNSLKPVDTAVDYCAAGYWYPDYDGFDYWGQGTQVTGSS,low polyreactivity
10,QVQLVESGGGLVQAGGSLRLSCAASGSNIKYYAMGWYRQAPGKERELVAAISWRGGRTYADSVKGRFTISRDNAKNTVYLQMNSLKPEDTAVYYCATAQTSITGRVYYWGQGTQVTVSS,high polyreactivity
11,QVQLVESGGGLVQAGGSLRLSCAASGSNITYYAMGWYRQAPGKERELVAAINLSGDITYYADSVKGRFTISRDNAKNTVYLQMNSLKPEDTAVYYCAAESASSRPYFNSIHRRDSWGQGTQVTVSS,low polyreactivity
12,QVQLVESGGGLVQAGGSLRLSCAASGSPFKRYAMGWYRQAPGKERELVAAISSRGSSTYYADSVKGRFTISRDNAKNTVYLQMNSLKPEDTAVYYCAADRYTFWTVHSDYWGQGTQVTVSS,high polyreactivity
13,QVQLVESGGGLVQAGGSLRLSCAASGSPFTRYTMGWYRHAPGKERELVASITRTGSTNYADSVKGRFTISRDNAKNTLYFQMNSLKPEDTAVYYCAAGRYYSYRFSFGYWGQGTQVTVSS,high polyreactivity
14,QVQLVESGGGLVQAGGSLRLSCAASGSPFVDNAMGWYRQAPGKEMELVAAIRDGSGGSTRYADSVKGRFTISRDNAKNTVYLQMHSLKPEVTAVYYCAADGYITVNYLRYDYWGQGTQVTVSS,low polyreactivity
15,QVQLVESGGGLVQAGGSLRLSCAASGSPYQQYGMGWYRQAPGKERELVAAITFSDGNTYYADSVTGRFTISRDNAKNTVYLQMNSLKPEDTAVYYCNAGYSYGVSYAEGGYWGQGTQVTVSS,low polyreactivity
16,QVQLVESGGGLVQAGGSLRLSCAASGSSFAGNAMGWYRQAPGKERELVAAIDSSTGSTYYADSVKGRFTISRDNAKNTVYLQMNSLKPEDTAVYYCNKTSFLVKLDYWGQGTQVTLSS,low polyreactivity
17,QVQLVESGGGLVQAGGSLRLSCAASGSSFGGYAMGWYRQAPGKERELVARITDRGGSTDYADSVKGRFTISRDNAKNTVYLQKNSLKPEDTAGSYCAKRGDRYEKRPRDYWGQGTQVTVSS,low polyreactivity
18,QVQLVESGGGLVQAGGSLRLSCAASGSSFGTYAMGWYRQAPGKERELVAAISSSVGSTYYADSVKGRFTISRDNATNTVYLQMNSLKPEDTAVYYCAVEQEDFWYPYLYDYWGQGTQVTVSS,high polyreactivity
19,QVQLVESGGGLVQAGGSLRLSCAASGSSFKRYAMGWYRQAPGKERELVAAINWRGGRTYYADSVKGRFTISRDNAKNTVYLQMNSLKPEDTAVYYCNVVSNSYYYQHYYWGQGTQVTVSS,high polyreactivity
20,QVQLVESGGGLVQAGGSLRLSCAASGSSFTPNALGWYRQAPGKERELVAAISSSSDRTYYADSVKGRFTISRDNAKNTVYLQMNSLKPEDTAVYYCNARTEYASSRYYYWGQGTQVTVSS,high polyreactivity
21,QVQLVESGGGLVQAGGSLRLSCAASGSSFVSYTMGWYRQAPGKERELVAAISYNGARTYYADSVKGRFTISRDNAKNTVYLQMNSLKPEDTAVYYCARRYYSQYDYWGQGTQVTVSS,high polyreactivity

row,Sequence,polyreactivity (PSR sort gate)
1,QVQLVESGGGLVQAGGSLRLSCAASGSSFYYYTMGWYRQAPGKEMELVAAITYSGGSTRYADSVKGRFTISRDNAKNTVYLQMNSLKPEDTAVYYCAAELTEWTNGFDYWGQGTQVTVSS,high polyreactivity
2,QVQLVESGGGLVQAGGSLRLSCAASGSSKLMLWDGIDRRLGKKGSWLPLFVLVVLRNYSDSVKGRFTISRDNAKNTVYLQMNSLKPEDTAVYYCAATPIGSGGWGDYWGQGTQVTVSS,low polyreactivity
3,QVQLVESGGGLVQAGGSLRLSCAASGSSLNLNAMGWYRQAPGKERELVAAIRWGGGSTYYADSVKGRFTISRDNAKNTDYLQMNSLKPEDTAVYYCAKAYHLGLGYRFDYWGQGTQVTVSS,high polyreactivity
4,QVQLVESGGGLVQAGGSLRLSCAASGSSLWYNTMGWYRQAPGKERELVATISGSGANTYYADSVKGRFTISRDNAKNTDYLQMNSLKPEDTAGYYCAAVYRRWGYSSEYDYWGQGTQVTVSS,high polyreactivity
5,QVQLVESGGGLVQAGGSLRLSCAASGSSRYAMGWYTPAPGKERELVAVITLSGGITYADSVKGRFTISRDNAKNTVYLQMKSLKPEDTAVYYCNADYGDWPTGGDYWGQGTQVTVSS,low polyreactivity
6,QVQLVESGGGLVQAGGSLRLSCAASGSTCAANAMGWYRQAPGKERELVAGISESVDRTYADSVKGRFTISRDNAKNTVYLQMNSLKPEDTAVYYCKVGANVYLLYFPSRGGVYDYGYWGQGTQVTVSS,low polyreactivity
7,QVQLVESGGGLVQAGGSLRLSCAASGSTCSVNAMGWYRQAPGKERELVAAITYSGGSTYYADSVKGRFTISRDNAKNTVYLQMNSLKPEDTAVYYCNRDTRYYWKRYGYWGQGTQVTVSS,high polyreactivity
8,QVQLVESGGGLVQAGGSLRLSCAASGSTDNNAMGWYRQAPGKERELVAAIRFRSGSTYYADSVNGRFTISRDNAKNTVYLQMNSLKPEDTAVYYCAAPGSPYGYWGQGTQVTVSS,high polyreactivity
9,QVQLVESGGGLVQAGGSLRLSCAASGSTFAAYAKGWYRQAPGKERELVAAISRSGGTTYYADSVKGRFTISRDNAKNTVYLQMNSLKPEDTAVYYCAAEQWYDNYLEYDYWGQGTQVTVSS,high polyreactivity
10,QVQLVESGGGLVQAGGSLRLSCAASGSTFACNGMGWYRQAPGKERELVAGIDVTGGSTYYADSVKGRFTISRDNAKNTDYLQMNSMKPEDTAVYYCNARYVYHSSFAGFDYWGQGTQVTVSS,low polyreactivity
11,QVQLVESGGGLVQAGGSLRLSCAASGSTFADYTMGWYRQAPGKERELSTSYADSVKGRFTISRDNAKNTVYLQMNSLKPEDTAVYYCAAETFYDYGGYDYWGQGTQVTVSS,low polyreactivity
12,QVQLVESGGGLVQAGGSLRLSCAASGSTFAEYAMGLYRQAPGKERELVAAISRRGGSTYYADSVKGRFTFSRDNAKYSVYLQMNSLKPEDTAVYYCATDGYTPYRWLWWLMDYWGQGTQVTVSS,high polyreactivity
13,QVQLVESGGGLVQAGGSLRLSCAASGSTFAFNAMGWYRQAPGKERELVAAISTSGGDTYYADSVKGRFTISRDNAKNTVYLQMNSLKPEDTAVYYCGGDYQVPGGSWMDYWGQGTQVTVSS,high polyreactivity
14,QVQLVESGGGLVQAGGSLRLSCAASGSTFAFYAMGWYRQAPGKERELVAAINLGGGSTYYADSVKGRFTISRDNAKNTVYLQMNSLKPEDTAVYYCAADFWTFSWPVFDTYVYWGQGTQVTVSS,low polyreactivity
15,QVQLVESGGGLVQAGGSLRLSCAASGSTFAFYAMGWYRQAPGKERELVAAISSSGARTYYADSVKGRFTISRYNAKNTVYLQMNSLKPEDTAVYYCAAAFYRLYITSYYYWGQGTQVTVSS,high polyreactivity
16,QVQLVESGGGLVQAGGSLRLSCAASGSTFAGHAMGWSRQAPGKERELVAAITFSGGRTDYADSVKGRFTISRDNAKNTVYLQMNSLIPEDTAVYYCAAPADDTVHYQNYYWGQGTQVTVSS,low polyreactivity
17,QVQLVESGGGLVQAGGSLRLSCAASGSTFAGNAMGWYRQAPGKERELVAAISGSGGITYYADSVKGRFTISRDNAKNTVYLQMNSLKPEDTAVYYCNAYYWFSRYGYWGQGTQVTVSS,high polyreactivity
18,QVQLVESGGGLVQAGGSLRLSCAASGSTFAGYAMGWYRQAPGKERELVAAISRRGGSTYYADSVKGRFTISRDNAKNTVYLQMNSLKPEDTAVYYCNRDKYLRDPDYDYWGQGTQVTVSS,low polyreactivity
19,QVQLVESGGGLVQAGGSLRLSCAASGSTFAGYVMGWYRQAPGKERELVAAISRSGGSTYYADSVKGRFTISRDNAKNTVYLQMNSLKPEDTAVYYCAARNSPGFPGDYWGHGTQVTVSS,high polyreactivity
20,QVQLVESGGGLVQAGGSLRLSCAASGSTFAGYVMGWYRQAPGKERELVAAISRSGGSTYYADSVKGRFTISRDNAKNTVYLQMNSLKPEDTAVYYCAARNSPGLPGDYWGQGTQVTVSS,high polyreactivity
